Data on 22 molecules can be found in patent publication US20220227830A1, “QD DOSING OF GIP RECEPTOR AGONIST PEPTIDE COMPOUNDS AND USES THEREOF” (Takeda Pharmaceutical Company Limited, priority 2020, published 2022).

Starred links: 1 amine or outer side, 2 acyl side, 3 side chain; linkers in the order of their positions; H or OH if unused. Non-standard residues stand in square brackets, D forms with d. Groups on a side chain read outwards from the residue. No end group written: not given here. *: point of attachment. G2E3 = linker of 2 Gly and 3 Glu (read GGEEE); C16 diacid = O=C(O)CCCCCCCCCCCCCCC(=O)*; C15 diacid = O=C(O)CCCCCCCCCCCCCC(=O)*; γGlu = O=C(O)[C@H](CCC(=O)[*:2])N[*:1]; NMeY = CN[C@@H](Cc1ccc(O)cc1)C(=O)O; AEEA = NCCOCCOCC(=O)O; Aib = CC(C)(N)C(=O)O

Assay [1] deals with full-length human GLP-1R with an N-terminal FLAG tag (human, UniProt P43220 24-463). The assay can be described thus: cell-based or functional assay.
In assay [2] the target is T1, full-length human GIPR with an N-terminal FLAG tag (human, UniProt P48546 22-466).
T1 sequence (looked up): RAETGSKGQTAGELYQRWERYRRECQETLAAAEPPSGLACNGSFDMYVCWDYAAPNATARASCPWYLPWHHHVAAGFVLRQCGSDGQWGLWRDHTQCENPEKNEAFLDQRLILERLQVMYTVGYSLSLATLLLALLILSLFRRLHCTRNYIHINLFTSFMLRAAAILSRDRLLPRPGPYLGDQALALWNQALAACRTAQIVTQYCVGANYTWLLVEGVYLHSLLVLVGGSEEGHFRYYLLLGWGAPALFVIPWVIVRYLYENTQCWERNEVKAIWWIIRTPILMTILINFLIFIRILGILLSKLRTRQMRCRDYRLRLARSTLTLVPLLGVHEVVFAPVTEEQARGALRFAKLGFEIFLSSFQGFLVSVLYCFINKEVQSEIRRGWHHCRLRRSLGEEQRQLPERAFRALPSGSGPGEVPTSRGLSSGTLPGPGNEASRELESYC
The assay can be described thus: cell-based or functional assay.

B1: Compound 140 (peptide)
peptide: Me-Y[Aib]EGTFISDYSI[Aib]KDR[Aib]AQ[Aib]DFVNWLLAQSPSSGAPPPS-NH2
modifications: not fully specified (residues 1, 14)
For the molecule B1, the “Human GLP1R cAMP HEK293T EC50” value in assay [1] was found to be 178 nM. In addition, the “Human GIPR cAMP, HEK293T EC50” value in assay [2] was 0.0004 nM.

B2: Compound 156 (peptide)
peptide: Me-Y[Aib]EGTFISDYSI[Aib]KDR[Aib]AQ[Aib]DFVNWLLAQSPSSGAPPPS-OH
modifications: not fully specified (residues 1, 14)
On to B2, for which the “Human GLP1R cAMP HEK293T EC50” value in assay [1] turned out to be 89.1 nM. For the same molecule, in assay [2], the “Human GIPR cAMP, HEK293T EC50” value was found to be 0.0002 nM.

B3: Compound 138 (peptide)
peptide: Me-Y[Aib]EGTFISDYSI[Aib]K([G2E3-C15 diacid])DR[Aib]AQ[Aib]NFVNWLLAQRPSSGAPPPS-NH2
Take B3: the “Human GLP1R cAMP HEK293T EC50” value in assay [1] was found to be 1000 nM. In addition, in assay [2], the “Human GIPR cAMP, HEK293T EC50” value turned out to be 0.0004 nM.

B4: Compound 145 (peptide)
peptide: [NMeY][Aib]EGTFISDYSI[Aib]LDRK([AEEA-AEEA-γGlu-γGlu-C16 diacid])AQ[Aib]NFVNWLLAQRPSSGAPPPS-NH2
B4: the “Human GLP1R cAMP HEK293T EC50” value in assay [1] stood at 912 nM. Besides, the “Human GIPR cAMP, HEK293T EC50” value in assay [2] amounted to 0.0004 nM.

B5: Compound 146 (peptide)
peptide: Me-Y[Aib]EGTFISDYSIAKDR[Aib]AQ[Aib]DFVNWLLAQRPSSGAPPPS-OH
modifications: not fully specified (residues 1, 14)
Turning to B5, the “Human GLP1R cAMP HEK293T EC50” value in assay [1] amounted to 112 nM. Further, the “Human GIPR cAMP, HEK293T EC50” value in assay [2] was found to be 0.0005 nM.

B6: Compound 154 (peptide)
peptide: Me-Y[Aib]EGTFISDYSIAKDS[Aib]AQ[Aib]NFVNWLLAQSPSSGAPPPS-NH2
modifications: not fully specified (residues 1, 14)
As for B6, in assay [1], the “Human GLP1R cAMP HEK293T EC50” value was found to be 288 nM. Besides, in assay [2], the “Human GIPR cAMP, HEK293T EC50” value is 0.0003 nM.

B7: Compound 135 (peptide)
peptide: [NMeY][Aib]EGTFISDYSI[Aib]LDRK([AEEA-AEEA-γGlu-γGlu-C15 diacid])AQ[Aib]NFVNWLLAQRGGGGS-NH2
With B7, the “Human GLP1R cAMP HEK293T EC50” value in assay [1] amounted to 646 nM. Besides, the “Human GIPR cAMP, HEK293T EC50” value in assay [2] is 0.0005 nM.

B8: Compound 150 (peptide)
peptide: Me-Y[Aib]EGTFISDYSIAKDR[Aib]AQ[Aib]NFVNWLLAQSPSSGAPPPS-OH
modifications: not fully specified (residues 1, 14)
Turning to B8, in assay [1], the “Human GLP1R cAMP HEK293T EC50” value turned out to be 30.2 nM. Besides, the “Human GIPR cAMP, HEK293T EC50” value in assay [2] turned out to be 0.0003 nM.

B9: Compound 15 (peptide)
peptide: [NMeY][Aib]EGTFISDYSIALDR[Aib]AQ[Aib]K([AEEA-AEEA-γGlu-γGlu-C15 diacid])FVNWLLAQR
modifications: not fully specified (N-terminus, C-terminus)
As to B9, in assay [1], the “Human GLP1R cAMP HEK293T EC50” value worked out at 155 nM. In assay [2], the “Human GIPR cAMP, HEK293T EC50” value was 0.0003 nM.

B10: Compound 151 (peptide)
peptide: Me-Y[Aib]EGTFISDYSIAKDR[Aib]AQ[Aib]DFVNWLLAQSPSSGAPPPS-NH2
modifications: not fully specified (residues 1, 14)
In the case of B10, the “Human GLP1R cAMP HEK293T EC50” value in assay [1] is 145 nM. For the same molecule, in assay [2], the “Human GIPR cAMP, HEK293T EC50” value turned out to be 0.0004 nM.

B11: Compound 153 (peptide)
peptide: Me-Y[Aib]EGTFISDYSIAKDS[Aib]AQ[Aib]DFVNWLLAQRPSSGAPPPS-NH2
modifications: not fully specified (residues 1, 14)
With B11, the “Human GLP1R cAMP HEK293T EC50” value in assay [1] is 389 nM. In assay [2], the “Human GIPR cAMP, HEK293T EC50” value worked out at 0.0002 nM.

B12: Compound 137 (peptide)
peptide: [NMeY][Aib]EGTFISDYSIALDRK([Gly-Gly-Gly-Gly-Gly-γGlu-C15 diacid])AQ[Aib]DFVNWLLAQRPSSGAPPPS-NH2
For the molecule B12, the “Human GLP1R cAMP HEK293T EC50” value in assay [1] was 479 nM. The “Human GIPR cAMP, HEK293T EC50” value in assay [2] turned out to be 0.0002 nM.

B13: Compound 141 (peptide)
peptide: Me-Y[Aib]EGTFISDYSI[Aib]KDR[Aib]AQ[Aib]DFVNWLLAQSG-OH
modifications: not fully specified (residues 1, 14)
With B13, in assay [1], the “Human GLP1R cAMP HEK293T EC50” value worked out at 64.6 nM. Moreover, the “Human GIPR cAMP, HEK293T EC50” value in assay [2] was 0.0003 nM.

B14: Compound 16 (peptide)
peptide: Me-Y[Aib]EGTFISDYSIAK([AEEA-AEEA-γGlu-γGlu-C15 diacid])DR[Aib]AQ[Aib]NFVNWLLAQS
modifications: not fully specified (residue 1)
As to B14, the “Human GLP1R cAMP HEK293T EC50” value in assay [1] came out at 263 nM. Moreover, the “Human GIPR cAMP, HEK293T EC50” value in assay [2] was 0.0003 nM.

B15: Compound 139 (peptide)
peptide: Me-Y[Aib]EGTFISDYSI[Aib]K([AEEA-AEEA-γGlu-γGlu-C15 diacid])DR[Aib]AQ[Aib]NFVNWLLAQSPSSGAPPPS-NH2
Consider B15, for which the “Human GLP1R cAMP HEK293T EC50” value in assay [1] was 1000 nM. The “Human GIPR cAMP, HEK293T EC50” value in assay [2] came out at 0.0004 nM.

B16: Compound 149 (peptide)
peptide: Me-Y[Aib]EGTFISDYSIALDR[Aib]AQ[Aib]K([AEEA-AEEA-γGlu-γGlu-C15 diacid])FVNWLLAQSG-OH
For B16, the “Human GLP1R cAMP HEK293T EC50” value in assay [1] amounted to 25.7 nM. For the same molecule, in assay [2], the “Human GIPR cAMP, HEK293T EC50” value was determined as 0.0007 nM.

B17: Compound 152 (peptide)
peptide: Me-Y[Aib]EGTFISDYSIAKDR[Aib]AQ[Aib]DFVNWLLAQSPSSGAPPPG-OH
modifications: not fully specified (residues 1, 14)
B17: the “Human GLP1R cAMP HEK293T EC50” value in assay [1] was 302 nM. Also, the “Human GIPR cAMP, HEK293T EC50” value in assay [2] was 0.0003 nM.

B18: Compound 136 (peptide)
peptide: Me-Y[Aib]EGTFISDYSI[Aib]LDR[Aib]AQ[Aib]NFVNWLLAQK([AEEA-AEEA-γGlu-γGlu-C15 diacid])GGGGS-NH2
Regarding B18, the “Human GLP1R cAMP HEK293T EC50” value in assay [1] was 407 nM. Further, the “Human GIPR cAMP, HEK293T EC50” value in assay [2] was 0.0009 nM.

B19: Compound 18 (peptide)
peptide: Me-Y[Aib]EGTFISDYSIAK([γGlu-γGlu-γGlu-C15 diacid])DR[Aib]AQ[Aib]NFVNWLLAQSPSSGAPPPS-NH2
For B19, in assay [1], the “Human GLP1R cAMP HEK293T EC50” value stood at 1000 nM. Also, the “Human GIPR cAMP, HEK293T EC50” value in assay [2] was determined as 0.0002 nM.

B20: Compound 22 (peptide)
peptide: Me-Y[Aib]EGTFISDYSIAK([2OEG-γGlu-γGlu-C15 diacid])DR[Aib]AQ[Aib]NFVNWLLAQK-NH2
B20: the “Human GLP1R cAMP HEK293T EC50” value in assay [1] was 631 nM. Besides, in assay [2], the “Human GIPR cAMP, HEK293T EC50” value was 0.0003 nM.

B21: Compound 147 (peptide)
peptide: Me-Y[Aib]EGTFISDYSIAKDR[Aib]AQ[Aib]NFVNWLLAQRPSSGAPPPS-OH
modifications: not fully specified (residues 1, 14)
Turning to B21, the “Human GLP1R cAMP HEK293T EC50” value in assay [1] came out at 16.6 nM. For the same molecule, the “Human GIPR cAMP, HEK293T EC50” value in assay [2] stood at 0.0011 nM.

B22: Compound 155 (peptide)
peptide: Me-Y[Aib]EGTFISDYSIAKDR[Aib]AQ[Aib]DFVNWLLAQSPSSGAPPPS-OH
modifications: not fully specified (residues 1, 14)
With B22, the “Human GLP1R cAMP HEK293T EC50” value in assay [1] amounted to 295 nM. In addition, the “Human GIPR cAMP, HEK293T EC50” value in assay [2] amounted to 0.0003 nM.
